Test results published in article PMC7305164.

Biological target: Sso7d(W24A/R43E)-HTLV-1 IN(E156Q) (HTLV-1)
Test: cryo-EM structure; SEC-purified HTLV-1 intasome (strand-transfer complex) of Sso7d-IN(E156Q), B56γ(11–380) and branched viral U5 LTR/target DNA; 3.7 Å, C2 symmetry imposed

Sso7d(W24A/R43E)-HTLV-1 IN(E156Q) (enzyme)
stoichiometry N: 4
